According to IntAct's records for PubMed 11168407:

B1: Serine acetyltransferase 3, mitochondrial (Arabidopsis thaliana (Mouse-ear cress)), Q39218 (parent)
chain: MLPVTSRRHFTMSLYMLRSSSPHINHHSFLLPSFVSSKFKHHTLSPPPSPPPPPPMAACIDTCRTGKPQISPRDSSKHHDDESGFRYMNYFRYPDRSSFNGTQTKTLHTRPLLEDLDRDAEVDDVWAKIREEAKSDIAKEPIVSAYYHASIVSQRSLEAALANTLSVKLSNLNLPSNTLFDLFSGVLQGNPDIVESVKLDLLAVKERDPACISYVHCFLHFKGFLACQAHRIAHELWTQDRKILALLIQNRVSEAFAVDFHPGAKIGTGILLDHATAIVIGETAVVGNNVSILHNVTLGGTGKQCGDRHPKIGDGVLIGAGTCILGNITIGEGAKIGAGSVVLKDVPPRTTAVGNPARLLGGKDNPKTHDKIPGLTMDQTSHISEWSDYVI

Variants of: B1
Details: with cyskm_arath OASC

Variant | effect of a mutation on the interaction
E282A | decreasing interaction
V353E | decreasing interaction

Variants of: B1
Details: with cyskm_arath OASC
Remark: another data set of the same source

Variant | effect of a mutation on the interaction
H309A | increasing interaction
V353A | disrupting interaction
